Data reported in FireProtDB (doi:10.1021/bi301421v).
“And” between values parts separate entries of the source, which are not always exact repeats. Equal entries are not always repeated.

B1: Arginase, O25949 (parent)
chain: MILVGLEAELGASKRGTDKGVRRLREALSATHGDVIKGMQTITQERCVLYKEFRYAKNFEDYYLFCKENLIPCMKEVFEKKEFPLILSSEHANMFGIFQAFRSVHKDKKIGILYLDAHADIHTAYDSDSKHIHGMPLGMVLNRVRSGFNRMSESEEKAWQKLCSLGLEKGGLEIDPKCLVYFGVRSTEQSERDVIRELQIPLFSVDAIRENMQEVVQKTKESLKAVDIIYLSLDLDIMDGKLFTSTGVRENNGLSFDELKQLLGLLLESFKDRLKAVEVTEYNPTVSIKHNNEEEKQVLEILDLIINSCKIKDKKHSFARSY

Variants of: B1
Conditions: Helicobacter pylori (strain ATCC 700392 / 26695); pH 7.2; Thermal; CD; Tris-HCl 20 mM; transition: 2; reversible: yes; structure 4G3H; whole UniProt chain shown

| Variant | Tm | change of melting temperature, mutant - wild type (higher = more stable) |
| --- | --- | --- |
| MILVGLEAELGASKRGTDKGVRRLREALSATHGDVIKGMQTITQERCVLYKEFRYAKNFEDYYLFCKENLIPCMKEVFEKKEFPLILSSEHANMFGIFQAFRSVHKDKKIGILYLDAHADIHTAYASDSKHIHGMPLGMVLNRVRSGFNRMSESEEKAWQKLCSLGLEKGGLEIDPKCLVYFGVRSTEQSERDVIRELQIPLFSVDAIRENMQEVVQKTKESLKAVDIIYLSLDLDIMDGKLFTSTGVRENNGLSFDELKQLLGLLLESFKDRLKAVEVTEYNPTVSIKHNNEEEKQVLEILDLIINSCKIKDKKHSFARSY [D126A] | 61 °C | -7 °C |
| MILVGLEAELGASKRGTDKGVRRLREALSATHGDVIKGMQTITQERCVLYKEFRYAKNFEDYYLFCKENLIPCMKEVFEKKEFPLILSSEHANMFGIFQAFRSVHKDKKIGILYLDAHADIHTAYDSDSKHIHGMPLGMVLNRVRSGFNRMSESEEAAWQKLCSLGLEKGGLEIDPKCLVYFGVRSTEQSERDVIRELQIPLFSVDAIRENMQEVVQKTKESLKAVDIIYLSLDLDIMDGKLFTSTGVRENNGLSFDELKQLLGLLLESFKDRLKAVEVTEYNPTVSIKHNNEEEKQVLEILDLIINSCKIKDKKHSFARSY [K157A] | 57.7 °C | -10.3 °C |
| MILVGLEAELGASKRGTDKGVRRLREALSATHGDVIKGMQTITQERCVLYKEFRYAKNFEDYYLFCKENLIPCMKEVFEKKEFPLILSSEHANMFGIFQAFRSVHKDKKIGILYLDAHADIHTAYDSDSKHIHGMPLGMVLNRVRSGFNRMSESEEKAWQKACSLGLEKGGLEIDPKCLVYFGVRSTEQSERDVIRELQIPLFSVDAIRENMQEVVQKTKESLKAVDIIYLSLDLDIMDGKLFTSTGVRENNGLSFDELKQLLGLLLESFKDRLKAVEVTEYNPTVSIKHNNEEEKQVLEILDLIINSCKIKDKKHSFARSY [L162A] | – | -2.7 °C and -7 °C |
| MILVGLEAELGASKRGTDKGVRRLREALSATHGDVIKGMQTITQERCVLYKEFRYAKNFEDYYLFCKENLIPCMKEVFEKKEFPLILSSEHANMFGIFQAFRSVHKDKKIGILYLDAHADIHTAYDSDSKHIHGMPLGMVLNRVRSGFNRMSESEEKAWAKLCSLGLEKGGLEIDPKCLVYFGVRSTEQSERDVIRELQIPLFSVDAIRENMQEVVQKTKESLKAVDIIYLSLDLDIMDGKLFTSTGVRENNGLSFDELKQLLGLLLESFKDRLKAVEVTEYNPTVSIKHNNEEEKQVLEILDLIINSCKIKDKKHSFARSY [Q160A] | 64.4 °C and 62.8 °C | -5.6 °C and -5.2 °C |
| MILVGLEAELGASKRGTDKGVRRLREALSATHGDVIKGMQTITQERCVLYKEFRYAKNFEDYYLFCKENLIPCMKEVFEKKEFPLILSSEHANMFGIFQAFRSVHKDKKIGILYLDAHADIHTAYDSDSKHIHGMPLGMVLNRVRSGFNRMSESEEKAFQKLCSLGLEKGGLEIDPKCLVYFGVRSTEQSERDVIRELQIPLFSVDAIRENMQEVVQKTKESLKAVDIIYLSLDLDIMDGKLFTSTGVRENNGLSFDELKQLLGLLLESFKDRLKAVEVTEYNPTVSIKHNNEEEKQVLEILDLIINSCKIKDKKHSFARSY [W159F] | 64.8 °C and 59.9 °C | -5.2 °C and -8.1 °C |
| MILVGLEAELGASKRGTDKGVRRLREALSATHGDVIKGMQTITQERCVLYKEFRYAKNFEDYYLFCKENLIPCMKEVFEKKEFPLILSSEHANMFGIFQAFRSVHKDKKIGILYLDAHADIHTAYDSDSKHIHGMPLGMVLNRVRSGFNRMSESEEKAAQKLCSLGLEKGGLEIDPKCLVYFGVRSTEQSERDVIRELQIPLFSVDAIRENMQEVVQKTKESLKAVDIIYLSLDLDIMDGKLFTSTGVRENNGLSFDELKQLLGLLLESFKDRLKAVEVTEYNPTVSIKHNNEEEKQVLEILDLIINSCKIKDKKHSFARSY [W159A] | 51 °C | -17 °C |
| MILVGLEAELGASKRGTDKGVRRLREALSATHGDVIKGMQTITQERCVLYKEFRYAKNFEDYYLFCKENLIPCMKEVFEKKEFPLILSSEHANMFGIFQAFRSVHKDKKIGILYLDAHADIHTAYDSDSKHIHGMPLGMVLNRVRSGFNRMSASEEKAWQKLCSLGLEKGGLEIDPKCLVYFGVRSTEQSERDVIRELQIPLFSVDAIRENMQEVVQKTKESLKAVDIIYLSLDLDIMDGKLFTSTGVRENNGLSFDELKQLLGLLLESFKDRLKAVEVTEYNPTVSIKHNNEEEKQVLEILDLIINSCKIKDKKHSFARSY [E153A] | 69.8 °C | -0.2 °C |
| MILVGLEAELGASKRGTDKGVRRLREALSATHGDVIKGMQTITQERCVLYKEFRYAKNFEDYYLFCKENLIPCMKEVFEKKEFPLILSSEHANMFGIFQAFRSVHKDKKIGILYLDAHADIHTAYDSDSKHIHGMPLGMVLNRVRSGFNRMSESEEKAWQKLCALGLEKGGLEIDPKCLVYFGVRSTEQSERDVIRELQIPLFSVDAIRENMQEVVQKTKESLKAVDIIYLSLDLDIMDGKLFTSTGVRENNGLSFDELKQLLGLLLESFKDRLKAVEVTEYNPTVSIKHNNEEEKQVLEILDLIINSCKIKDKKHSFARSY [S164A] | 70.7 °C | 0.7 °C |
| MILVGLEAELGASKRGTDKGVRRLREALSATHGDVIKGMQTITQERCVLYKEFRYAKNFEDYYLFCKENLIPCMKEVFEKKEFPLILSSEHANMFGIFQAFRSVHKDKKIGILYLDAHADIHTAYDSDSKHIHGMPLGMVLNRVRSGFNRMSESEAKAWQKLCSLGLEKGGLEIDPKCLVYFGVRSTEQSERDVIRELQIPLFSVDAIRENMQEVVQKTKESLKAVDIIYLSLDLDIMDGKLFTSTGVRENNGLSFDELKQLLGLLLESFKDRLKAVEVTEYNPTVSIKHNNEEEKQVLEILDLIINSCKIKDKKHSFARSY [E156A] | 59 °C | -9 °C |
